Measurements reported in patent publication US20200010571A1 (Janssen / Centocor, published 2020).

Columns and labels:
[1] = target: T1, human IL-17A (recombinant) (human, UniProt Q16552 24-155); experiment: cell-based or functional assay
[2] = target: T1, human IL-17A (recombinant); experiment: cell-based or functional assay; remark: listed apart in the source
[3] = target: T2, recombinant human IL-17A/F heterodimer (human, UniProt Q16552 24-155; Q96PD4 31-163); experiment: cell-based or functional assay
[4] = target: T2, recombinant human IL-17A/F heterodimer; experiment: cell-based or functional assay; remark: listed apart in the source
cynomolgus IL-17A [5] = target: T3, cynomolgus IL-17A (cynomolgus, UniProt Q16552 24-155 (human entry), limits assumed); experiment: cell-based or functional assay
T3 chain: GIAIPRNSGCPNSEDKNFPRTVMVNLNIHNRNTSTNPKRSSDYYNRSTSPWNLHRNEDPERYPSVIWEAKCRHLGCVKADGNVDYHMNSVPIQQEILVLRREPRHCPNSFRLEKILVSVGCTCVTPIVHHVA

cynomolgus IL-17A [6] = target: T3, cynomolgus IL-17A; experiment: cell-based or functional assay
[7] = target: T1, human IL-17A (recombinant); experiment: cell-based or functional assay; remark: listed apart in the source
[8] = target: T1, human IL-17A (recombinant); experiment: cell-based or functional assay; remark: listed apart in the source
[9] = target: T1, human IL-17A (recombinant); experiment: competition ELISA: biotinylated rhIL-17A binding to plate-coated rhIL-17RA-Fc; Experiment 1; 95% CI 0.03759-0.04316
[10] = target: T1, human IL-17A (recombinant); experiment: competition ELISA: biotinylated rhIL-17A binding to plate-coated rhIL-17RA-Fc; Experiment 2; 95% CI 0.04003-0.04542
[11] = target: T1, human IL-17A (recombinant); experiment: competition ELISA: biotinylated rhIL-17A binding to plate-coated rhIL-17RA-Fc; Experiment 3; 95% CI 0.07179-0.08047
[12] = target: T1, human IL-17A (recombinant); experiment: competition ELISA: biotinylated rhIL-17A binding to plate-coated rhIL-17RA-Fc; Experiment 1; 95% CI 0.03924-0.04274
[13] = target: T1, human IL-17A (recombinant); experiment: competition ELISA: biotinylated rhIL-17A binding to plate-coated rhIL-17RA-Fc; Experiment 2; 95% CI 0.02829-0.03326
[14] = target: T1, human IL-17A (recombinant); experiment: competition ELISA: biotinylated rhIL-17A binding to plate-coated rhIL-17RA-Fc; Experiment 3; 95% CI 0.06727-0.07636

Binder | IC50 (µg/mL); Inhibition of native IL-17A mediated GROα production by NHDF; Experiment 1 [1] [µg/mL] | IC50 (µg/mL); Inhibition of native IL-17A mediated GROα production by NHDF; Experiment 2 [1] [µg/mL] | IC50 (µg/mL); Inhibition of native IL-17A mediated GROα production by NHDF; Experiment 3 [1] [µg/mL] | IC50 (µg/mL); Inhibition of native IL-17A mediated IL-6 production by NHDF; Experiment 1 [2] [µg/mL] | IC50 (µg/mL); Inhibition of native IL-17A mediated IL-6 production by NHDF; Experiment 2 [2] [µg/mL] | IC50 (µg/mL); Inhibition of native IL-17A mediated IL-6 production by NHDF; Experiment 3 [2] [µg/mL] | IC50 (µg/mL); Inhibition of IL-17A/F mediated GROα production by NHDF; Experiment 1 [3] [µg/mL] | IC50 (µg/mL); Inhibition of IL-17A/F mediated GROα production by NHDF; Experiment 2 [3] [µg/mL] | IC50 (µg/mL); Inhibition of IL-17A/F mediated GROα production by NHDF; Experiment 3 [3] [µg/mL] | IC50 (µg/mL); Inhibition of IL-17A/F mediated IL-6 production by NHDF; Experiment 1 [4] [µg/mL] | IC50 (µg/mL); Inhibition of IL-17A/F mediated IL-6 production by NHDF; Experiment 2 [4] [µg/mL] | IC50 (µg/mL); Inhibition of IL-17A/F mediated IL-6 production by NHDF; Experiment 3 [4] [µg/mL] | IC50 (µg/mL); Inhibition of cyno IL-17A mediated GROα production by NHDF; Experiment 3 (cynomolgus IL-17A [5]) [µg/mL] | IC50 (µg/mL); Inhibition of cyno IL-17A mediated IL-6 production by NHDF; Experiment 3 (cynomolgus IL-17A [6]) [µg/mL] | other results
mAb 4782 (parental anti-IL-17A antibody, IgG1, F405L) (antibody) heavy: not shown light: QSVLTQPPSVSVAPGQTARISCSGDNLGDKYANWYQQKPGQAPVLVIYDDIDRPSGIPERFSGSNSGNTATLTISGTQAEDEADYYCGSYDFFLGMIVFGGGTKLTVLGQPKAAPSVTLFPPSSEELQANKATLVCLISDFYPGAVTVAWKADSSPVKAGVETTTPSKQSNNKYAASSYLSLTPEQWKSHRSYSCQVTHEGSTVEKTVAPTECS | 0.0207 | 0.0327 | 0.0236 | 0.0254 | 0.0336 | 0.0242 | 0.473 | 0.117 | 0.317 | 0.714 | 0.243 | 0.99 | 0.0349 | 0.0248 | IC50 (µg/mL); Inhibition of cyno IL-17A mediated GROα production by NHDF; Experiment 1 (cynomolgus IL-17A [5]): 0.0235 µg/mL; IC50 (µg/mL); Inhibition of cyno IL-17A mediated GROα production by NHDF; Experiment 2 (cynomolgus IL-17A [5]): 0.0466 µg/mL; IC50 (µg/mL); Inhibition of cyno IL-17A mediated IL-6 production by NHDF; Experiment 2 (cynomolgus IL-17A [6]): 0.0437 µg/mL; IC50 (nM); Inhibition of rhTNF-α and IL-17 induced IL-6 secretion from RA-FLSs; Donor 1 (ST1320) [7]: 0.34 nM; IC50 (nM); Inhibition of rhTNF-α and IL-17 induced IL-6 secretion from RA-FLSs; Donor 2 (ST1349) [7]: 0.22 nM; IC50 (nM); Inhibition of rhTNF-α and IL-17 induced IL-6 secretion from RA-FLSs; Donor 3 (ST1359) [7]: 0.25 nM; IC50 (nM); Inhibition of rhTNF-α and IL-17A induced GROα secretion from RA-FLSs from three donors; Donor 1 (ST1320) [8]: 0.25 nM; IC50 (nM); Inhibition of rhTNF-α and IL-17A induced GROα secretion from RA-FLSs from three donors; Donor 2 (ST1349) [8]: 0.12 nM; IC50 (nM); Inhibition of rhTNF-α and IL-17A induced GROα secretion from RA-FLSs from three donors; Donor 3 (ST1359) [8]: 0.14 nM; IC50 [9]: 0.0403 µg/mL; IC50 [10]: 0.0426 µg/mL; IC50 [11]: 0.076 µg/mL
mAb 7206 (parental anti-IL-17A antibody, IgG1, YTE) (antibody) heavy: QVQLLESGGGLVQPGGSLRLSCAASGFTFSSYAMSWVRQAPGKGLEWVSTISLTSGFTYYADSVKGRFTISRDNSKNTLYLQMNSLRAEDTAVYYCARQLTLDVWGQGTLVTVSSASTKGPSVFPLAPSSKSTSGGTAALGCLVKDYFPEPVTVSWNSGALTSGVHTFPAVLQSSGLYSLSSVVTVPSSSLGTQTYICNVNHKPSNTKVDKKVEPKSCDKTHTCPPCPAPELLGGPSVFLFPPKPKDTLYITREPEVTCVVVDVSHEDPEVKFNWYVDGVEVHNAKTKPREEQYNSTYRVVSVLTVLHQDWLNGKEYKCKVSNKALPAPIEKTISKAKGQPREPQVYTLPPSREEMTKNQVSLTCLVKGFYPSDIAVEWESNGQPENNYKTTPPVLDSDGSFLLYSKLTVDKSRWQQGNVFSCSVMHEALHNHYTQKSLSLSPGK light: QSVLTQPPSVSVAPGQTARISCSGDNLGDKYANWYQQKPGQAPVLVIYDDIDRPSGIPERFSGSNSGNTATLTISGTQAEDEADYYCGSYDFFLGMIVFGGGTKLTVLGQPKAAPSVTLFPPSSEELQANKATLVCLISDFYPGAVTVAWKADSSPVKAGVETTTPSKQSNNKYAASSYLSLTPEQWKSHRSYSCQVTHEGSTVEKTVAPTECS | 0.0198 | 0.0265 | 0.0215 | 0.0214 | 0.0242 | 0.0232 | 0.725 | 0.393 | 0.403 | 0.344 | 0.269 | 0.545 | 0.0271 | 0.0326 | IC50 [12]: 0.041 µg/mL; IC50 [13]: 0.0307 µg/mL; IC50 [14]: 0.0717 µg/mL
